Patent US20150202223A1 (GENERAL HOSPITAL, published 2015)
Each block holds one binder with its values, some of them ahead of it.

Molecular target: T1, STING-HA (Sting cDNA with a C-terminal HA tag, stably expressed in p53-/- MEFs) (mouse, UniProt Q3TBT3 1-378)
T1 construct: not shown: C-terminal HA tag added by PCR
T1 sequence (looked up): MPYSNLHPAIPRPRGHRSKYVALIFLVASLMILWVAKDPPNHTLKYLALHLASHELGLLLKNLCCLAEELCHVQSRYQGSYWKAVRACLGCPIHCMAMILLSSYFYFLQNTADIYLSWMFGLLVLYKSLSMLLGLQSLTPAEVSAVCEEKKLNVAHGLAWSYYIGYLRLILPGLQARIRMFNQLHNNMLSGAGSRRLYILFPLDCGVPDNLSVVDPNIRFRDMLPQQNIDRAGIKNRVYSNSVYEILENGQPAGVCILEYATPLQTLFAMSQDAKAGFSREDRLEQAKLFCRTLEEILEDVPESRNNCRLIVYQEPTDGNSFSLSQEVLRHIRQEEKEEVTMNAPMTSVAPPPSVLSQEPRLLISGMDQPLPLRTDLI
Assay: anti-HA immunoprecipitation of STING-HA from MEF lysate, SILAC mass spectrometry
Protocol: Light (L) and heavy (H) isotope-labeled p53−/− MEFs mock infected (L) or stably expressing Sting-HA (H) were stimulated with 1000 U/mL IFNβ for 18 h. H cells were transfected with ISD for 2.5 h. Cells were lysed in 0.2% NP-40 buffer (above), and insoluble proteins were removed by centrifugation. 18 mg of each lysate was mixed with 1 ug/mL anti-HA antibody and Protein G beads (Pierce), and rotated for 2.5 h at 4° C. Beads were pelleted and washed extensively with wash buffer (above). The two samples were mixed, cysteines were reduced by DTT and alkylated with iodoacetamide, and proteins were eluted by heating in SDS sample buffer (Life Technologies) for 10 min before separation on a 4-12% gradient gel. The whole gel lane was cut into 8 slices, proteins were digested inside the gel with trypsin, and peptides were extracted from the gel as described4. Extracted peptides were purified with StageTips5 and analyzed with a 100 min acquisition method on a Thermo EASY-nLC 1000 UHPLC coupled to a Q Exactive mass spectrometer. […] All proteins were identified with at least 2 or more unique peptides and quantified with 3 or more ratios. […] To identify significant interactions, P-values were calculated via Gaussian modeling of the log(H/L) data, and proteins with P<0.05 were designated as candidates for siRNA screening.

binding result: no binding
B1: HMGB2 (other, mouse, UniProt P30681 1-210, looked up)
chain: MGKGDPNKPRGKMSSYAFFVQTCREEHKKKHPDSSVNFAEFSKKCSERWKTMSAKEKSKFEDLAKSDKARYDREMKNYVPPKGDKKGKKKDPNAPKRPPSAFFLFCSENRPKIKIEHPGLSIGDTAKKLGEMWSEQSAKDKQPYEQKAAKLKEKYEKDIAAYRAKGKSEAGKKGPGRPTGSKKKNEPEDEEEEEEEEEEEDDEEEEEDEE
notes: Endogenous protein co-precipitated from MEF lysates

binding result: no binding
B2: ANP32A (other, mouse, UniProt O35381 1-247, looked up)
chain: MEMDKRIYLELRNRTPSDVKELVLDNCKSIEGKIEGLTDEFEELEFLSTINVGLTSISNLPKLNKLKKLELSENRISGDLEVLAEKCPNLKHLNLSGNKIKDLSTIEPLKKLENLKSLDLFNCEVTNLNAYRENVFKLLPQVMYLDGYDRDNKEAPDSDVEGYVEDDDEEDEDEEEYDEYAQLVEDEEEEDEEEEGEEEDVSGEEEEDEEGYNDGEVDDEEDEEEAGEEEGSQKRKREPDDEGEEDD
notes: as for B1
